The target in this experiment is Taxol-stabilized microtubules (porcine brain tubulin) (porcine). Kind of experiment: TIRF single-molecule motility assay.
Sequence of Taxol-stabilized microtubules (porcine brain tubulin) (porcine) (P02550 whole entry, chain 1 of 2): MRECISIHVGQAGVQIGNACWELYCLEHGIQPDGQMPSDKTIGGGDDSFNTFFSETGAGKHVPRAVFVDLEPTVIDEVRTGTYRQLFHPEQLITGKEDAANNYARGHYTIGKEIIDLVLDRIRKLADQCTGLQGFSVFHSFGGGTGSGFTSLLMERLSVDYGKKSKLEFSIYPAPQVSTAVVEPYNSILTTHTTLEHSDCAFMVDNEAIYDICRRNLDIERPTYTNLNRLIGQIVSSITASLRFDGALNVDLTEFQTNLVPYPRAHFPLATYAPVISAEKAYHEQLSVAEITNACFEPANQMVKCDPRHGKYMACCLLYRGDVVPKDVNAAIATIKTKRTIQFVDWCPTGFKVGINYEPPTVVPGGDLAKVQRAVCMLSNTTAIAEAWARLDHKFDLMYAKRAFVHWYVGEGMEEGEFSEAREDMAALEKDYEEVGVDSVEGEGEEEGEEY
Sequence of Taxol-stabilized microtubules (porcine brain tubulin) (porcine) (P02554 whole entry, chain 2 of 2, further chain): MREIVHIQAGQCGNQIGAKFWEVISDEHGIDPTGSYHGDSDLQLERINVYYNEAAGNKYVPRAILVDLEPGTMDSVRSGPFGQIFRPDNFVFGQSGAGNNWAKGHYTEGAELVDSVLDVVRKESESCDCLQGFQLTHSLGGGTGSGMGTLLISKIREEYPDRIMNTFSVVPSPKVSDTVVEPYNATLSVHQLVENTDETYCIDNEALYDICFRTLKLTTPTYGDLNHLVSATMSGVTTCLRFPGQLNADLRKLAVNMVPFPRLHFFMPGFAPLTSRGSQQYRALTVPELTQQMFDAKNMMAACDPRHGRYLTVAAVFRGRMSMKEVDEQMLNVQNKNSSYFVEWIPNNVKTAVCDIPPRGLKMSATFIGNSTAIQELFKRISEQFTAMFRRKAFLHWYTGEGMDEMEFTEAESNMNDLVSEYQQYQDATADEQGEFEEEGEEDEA

With “full-length KIF5A(∆exon27)::mSca (from UniProt Q12840 1-1032) (natural protein)”, the landing rate (motors/μm/s/μM) was 8.3.

(Values after PMC9322661.)
